Positions count from the first letter of the chain named. In names and notes the source's numbering stands. Numbered stars: 1 amine (or outer) side, 2 acyl side, 3 side chain; on linkers, the order of the positions; unused ones are H or OH. Bridge positions count the residues as written; N and C are the ends. Square brackets hold non-standard residues; d marks the D form. Ends that are not written are not given here. * marks the point of attachment. warhead 3 = D-nipecotic acid acylated with acrylic acid, in place of L21, C=CC(=O)N1CCC[C@@H](C(=O)*)C1; Nip(3R) = O=C([C@@H]1CCCN([*:1])C1)[*:2]; warhead 1 = not defined here; S5 = C=CCCC[C@](C)(N)C(=O)O; Acryloyl = C=CC(=O)*
Legend:
[1] = target: T1, MCL-1 (Examples 1-4) (UniProt Q07820 170-327, limits assumed); assay: fluorescence polarization, FITC-labelled SAHB, protein serially diluted from 1 µM
T1 construct: also called MCL-I
T1 sequence (Q07820 170-327 limits assumed): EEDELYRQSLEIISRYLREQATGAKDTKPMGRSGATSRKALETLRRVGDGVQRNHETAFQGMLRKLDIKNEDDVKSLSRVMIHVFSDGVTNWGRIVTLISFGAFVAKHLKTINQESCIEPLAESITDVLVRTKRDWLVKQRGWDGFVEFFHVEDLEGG
Description: (§1) The solution-state equilibrium binding assay was used to determine binding affinities of the stapled peptides to the anti-apoptotic proteins. Proteins were serially diluted from 1 μM, then combined with FITC-labeled SAHB and polarization measured at 5 min on a microplate reader. We then calculated dissociation constants (KD) by nonlinear regression analysis of dose-response curves.

[2] = target: T2, Bfl-1 (Examples 1-4) (UniProt Q16548 1-153, limits assumed); assay: as above
T2 construct: also called 9×His-tagged Bfl-1
T2 sequence (looked up): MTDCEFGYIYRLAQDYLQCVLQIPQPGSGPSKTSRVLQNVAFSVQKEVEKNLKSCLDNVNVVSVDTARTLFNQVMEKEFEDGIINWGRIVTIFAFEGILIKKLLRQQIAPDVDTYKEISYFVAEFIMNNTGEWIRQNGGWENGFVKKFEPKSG
Description: as §1

[3] = target: T3, BFL-1ΔC C4S/C19S/C55S (human, UniProt Q16548 1-153); assay: biolayer interferometry (Octet RED384): biotin-PEG-NOXA SAHB on super streptavidin tips, BFL-1ΔC construct in solution
T3 construct: range 1-153; Made by site-directed mutagenesis of BFL-1ΔC; also called BFL-1 with no cysteines; not shown: N-terminal His tag from the pET19b vector
T3 sequence (looked up): T2 sequence (looked up) with C4S, C19S, C55S
Description: (§2) Excess streptavidin was quenched by incubation with 2 μg/mL biocytin. The tips were then washed with kinetics buffer and soaked in a serial dilution of BFL-1ΔC for 10 min to measure association rate, followed by a 15 min incubation in kinetics buffer to measure dissociation rate. Dissociation constants were calculated using Octet Data Analysis version 9.0.

[4] = target: T4, BFL-1ΔC (aa 1-153) (human, UniProt Q16548 1-153); assay: as above
T4 construct: also called wild-type BFL-1ΔC; BFL-1 WT
T4 sequence: T2 sequence (looked up)
Description: as §2

[5] = target: T5, BFL-1ΔC C4S/C19S (human, UniProt Q16548 1-153); assay: as above
T5 construct: range 1-153; Made by site-directed mutagenesis of BFL-1ΔC; also called His-BFL-1ΔC C4S/C19S; C55-only BFL-1; not shown: N-terminal His tag from the pET19b vector
T5 sequence (looked up): T2 sequence (looked up) with C4S, C19S
Description: as §2

[6] = target: T5, BFL-1ΔC C4S/C19S; assay: covalent conjugation, 10:1 peptide:protein, reducing denaturing gel, Coomassie
Description: Processing for gel electrophoresis and Coomassie staining was performed as above.

[7] = target: T4, BFL-1ΔC (aa 1-153); assay: covalent conjugation with BFL-1 cysteine mutants, gel shift
[8] = target: T6, HA-BFL-1ΔC C4S/C19S (human, UniProt Q16548 1-153); assay: 293T lysates, 10 µM biotinylated peptide, anti-HA and anti-biotin western
T6 construct: range 1-153; also called expressed HA-BFL-1ΔC C4S/C19S; not shown: HA tag (pCMV plasmid)
T6 sequence (looked up): T2 sequence (looked up) with C4S, C19S
Description: For lysate experiments, cells were trypsinized 24 hours post-transfection, washed with PBS, and lysed by incubation with 1% CHAPS lysis buffer (150 mM NaCl, 50 mM Tris pH 7.4, 100 mM DTT). Protein concentration of the soluble fraction was measured using a BCA kit according to manufacturer's instructions (Thermo Scientific). […] Samples were then boiled in LDS buffer and subjected to western analysis using 1:1000 dilutions of HA (Sigma-Aldrich, #12CA5) and biotin (Abcam, #53494) antibodies. […] After 24 h, cells were trypsinized, washed with PBS, lysed in 1% CHAPS buffer, and the supernatant collected for protein concentration determination by BCA kit. […] The mixtures were then subjected to HA or FLAG (Sigma-Aldrich, F7425) immunoprecipitation, followed by western analysis using 1:1000 dilutions of HA, FLAG, biotin, and BID (Santa Cruz sc-11423) antibodies. […] Cells were harvested and lysed as above, and incubated overnight with anti-HA agarose beads (Pierce). The beads were washed 3 times with lysis buffer, eluted by boiling in LDS buffer, and subjected to western analysis with HA and biotin antibodies.

B1: NOXA SAHBA (peptide)
peptide: AELEVECATQLR[S5]FGD[S5]LNFRQKLL
modifications: staple 13-17; also: N-terminus PEG-biotin or FITC depending on assay
notes: Stapled NOXA BH3 peptide (aa 19-43) with native C25; also called WT NOXA SAHB; wild-type NOXA SAHBA
- EC50 (read off the curve) [1]: ~200 nM
- EC50 (read off the curve) [2]: ~100 nM
- Kd [3]: 118 nM
- Kd [4]: 122 nM
- Kd [5]: 165 nM

B2: NOXA SAHBA C25S (peptide)
peptide: AELEVESATQLR[S5]FGD[S5]LNFRQKLL
modifications: staple 13-17; also: N-terminus PEG-biotin or FITC depending on assay
notes: Stapled NOXA BH3 peptide with C25S; also called NOXA C25S SAHB; NOXA C25 SAHB
- Kd [3]: 58.2 nM
- Kd [4]: 46.6 nM
- Kd [5]: 47.2 nM

B3: NOXA SAHBA F32Y (peptide)
peptide: AELEVECATQLR[S5]YGD[S5]LNFRQKLL
modifications: staple 13-17; also: FITC-labelled, site not given here
notes: member of the group m25; also called NOXA SAHB F32 variant with tyrosine
- binding result [1]: no binding (tested: 1e-6 M)
- EC50 (read off the curve) [2]: ~200 nM

Binder: [warhead 1]EVESATQLR[S5]FGD[S5]LNFRQKLL (staple 11-15; reading uncertain, also called NOXA SAHBA-WH, warhead 1) [NOXA SAHBA bearing warhead 1 (of FIG. 12B)]
- binding result [6]: binds

B4: NOXA SAHBA-3 (peptide)
peptide: [warhead 3]EVESATQLR[S5]FGD[S5]LNFRQKLL
modifications: staple 11-15; also: biotinylated form carries C-terminal Lys-biotin
notes: also called NOXA SAHBA-WH with warhead 3; biotinylated NOXA SAHBA-3
- binding result [7]: binds
- binding result [6]: binds
- binding result [8]: binds

Binder: Acryloyl-EVESATQLR[S5]FGD[S5]LNFRQKLL (staple 10-14, also called NOXA SAHBA-WH, warhead 8) [NOXA SAHBA bearing warhead 8 (of FIG. 12B)]
- binding result [6]: binds

Binder: [(3S)‑1‑acryloylpyrrolidine‑3‑carboxylic acid]IAQELR[S5]IGD[S5]FNAYYARR (staple 8-12, also called BIM SAHBA-WH, warhead 1) [BIM SAHBA bearing warhead 1 (of FIG. 12B)]
- binding result [6]: binds

B5: BIM SAHBA-3 (peptide)
peptide: [Nip(3R)](Acryloyl)IAQELR[S5]IGD[S5]FNAYYARR
modifications: staple 8-12
notes: also called BIM SAHBA-WH with warhead 3; biotinylated BIM SAHBA-3
- binding result [7]: binds
- binding result [6]: binds
- binding result [8]: binds

Binder: Acryloyl-IAQELR[S5]IGD[S5]FNAYYARR (staple 7-11, also called BIM SAHBA-WH, warhead 8) [BIM SAHBA bearing warhead 8 (of FIG. 12B)]
- binding result [6]: binds

— patent US20190002506A1 (Dana-Farber, published 2019)
